These results are taken from paper PMC7794244, “Development of a structural epitope mimic: an idiotypic approach to HCV vaccine design” (NPJ Vaccines, 2021).

In assay [1] the target is MAb ALP98. The experiment in a line: ELISA. To be noted: parent: est. 100; read off a plot. For orientation: In an ELISA, binding on a coated surface is turned into a signal by an enzyme label.
Assay [2] deals with broadly neutralizing anti-E2 murine monoclonal antibody AP33 (IgG). The experiment in a line: competition ELISA. As to conditions: peptide 10 µg/ml (highest concentration); binding to E2661 read; parent: est. 5; read off a plot.
The target of assay [3] is AP33 light chain mutant N92 (human-mouse chimeric AP33, residue changed to alanine) (mouse | human). The experiment in a line: ELISA.
Assay [4] addresses AP33 light chain mutant Y28 (human-mouse chimeric AP33, residue changed to alanine) (mouse | human). Nature of the assay: ELISA.
For assay [5], the target named is AP33 heavy chain mutant T97 (human-mouse chimeric AP33, residue changed to alanine) (mouse | human). The experiment in a line: ELISA.
Assay [6] has as its target AP33 heavy chain mutant Y53 (human-mouse chimeric AP33, residue changed to alanine) (mouse | human). The experiment in a line: ELISA.
Assay [7] addresses AP33 light chain mutant N30 (human-mouse chimeric AP33, residue changed to alanine) (mouse | human). Nature of the assay: ELISA.
For assay [8], the target named is AP33 light chain mutant V93 (human-mouse chimeric AP33, residue changed to alanine) (mouse | human). The experiment in a line: ELISA.
Assay [9] deals with AP33 heavy chain mutant I95 (human-mouse chimeric AP33, residue changed to alanine) (mouse | human). Nature of the assay: ELISA.
The target in assay [10] is AP33 light chain mutant D94 (human-mouse chimeric AP33, residue changed to alanine) (mouse | human). Nature of the assay: ELISA.
Assay [11] deals with soluble HCV E2 that lacks the transmembrane domain (E2_(661)), monomeric (Hepatitis C virus genotype 1a strain …, UniProt P27958). Nature of the assay: SPR. As to conditions: both partners purified.

As a reminder, the Kd is the equilibrium constant for the complex coming apart. Lower therefore signals higher affinity. In general, koff refers to the first-order rate constant of dissociation. A higher koff goes with fast dissociation. One may read the kon as the second-order rate constant of association. A higher kon goes with faster complex formation.

E2 WT I414A: the percent of parent in [1] turned out to be 96%.
E2 412-423 WT peptide W420R: the other: E2 Binding (%) remaining after peptide competition in assay [2] was determined as 86%.
Regarding “E2 (as tested on wild type and mutant AP33 in Table 1) (from UniProt P27958 384-746) (natural protein)”, the Relative strength of binding (%) (% of binding to WT AP33) stood at 60 in assay [3]; 112 in assay [4]; 101 in assay [5]; 100 in [6]; 89 in assay [7]; 79 in [8]. Moreover, the Relative strength of binding (%) (% of binding to WT AP33) in assay [9] was 10; in assay [10], 74.
E2 WT S424A: the percent of parent in [1] came out at 96%.

B1: broadly neutralizing anti-E2 murine monoclonal antibody AP33 (IgG) (antibody, V domains shown)
VH: EVQLQESGPSLVKPSQTLSLTCSVTGDSITSGYWNWIRKFPGNKLEYMGYISYSGSTYYNLSLRSRISITRDTSKNQYYLQLNSVTTEDTATYYCALITTTTYAMDYWGQGTSVTVSS
VL: NIVLTQSPVSLAVSLGQRATISCRASESVDGYGNSFLHWFQQKPGQPPKLLIYLASNLNSGVPARFSGSGSRTDFTLTIDPVEADDAATYYCQQNNVDPWTFGGGTKLEIK
In assay [11], B1 displayed an equilibrium dissociation constant (Kd) of 3.4 nM, a koff of 0.000542 s⁻¹ and an on-rate constant (kon) of 160000 M⁻¹ s⁻¹.
